Results on 17 sequences are retold here after the DeepSol protein solubility set.

This series in a line: soluble on expression in E. coli; label from the status in PepcDB or PDB records.
In the case of “MSSRKGKASAHISYEDENDDLIDEINTFHNKDRKVEKGAIHKRKTFNRPEEVLNVEAEASDSSEDDGSDFDDDDVNDITDNKWGKKRKDFYGTGFVDKDWGGMREEEMEDAQLEEEDALTRQKQIDKSTAAIADLFDDDDEDEEEKEETVEVETVLEFNEENARTKNKKIVKTLEQFEARKRIFDLVVKPLENVIKQIPKCALRSQLVYVAQTYASYLMNTAFLLNLRAKQFSNEKLDDPLVDIHPVVESLKRLEKKITECEDFLHSNSDHLDELKKWAESEPENMEELISKVGDVQLTKKNFGAIMNNNLSTITSSDNTSIHPHFTPMDADEKRKASDKVAKNREYAERRGKKKAKTSKTKNRRKVHAIEKRVKSQIGNVRREMQKYSGETSGIRASTIKSTKLIA”, the “soluble on expression in E. coli” value was “not soluble”. Take “MSLSDDLFAPQVPVEVANRRPLADRLRPKTLSEVSGQPHLTGEEGVLRRMIDSGSLGSMIFWGPPGTGKTTVARLLSGEAGLAFEQISAIFSGVADLKKVFEAARTRRMNGRQTLLFVDEIHRFNRAQQDSFLPVMEDGTIILVGATTENPSFELNAALLSRARVLTFGSHDEDSLSELLKRAEEAEGKPLPLTEEARASLLRMADGDGRAVLTLAEEVWRAARKDETFDTEGLTRIVQRRAPVYDKSQDGHYNLISALHKSVRGSDPDAALYYLARMFDAGEDPLYLGRRLVRMAVEDIGLADPQALAVCNAAKDAYDYLGSPEGELALAQACVYLATAPKSNAVYTAFKAAMRAAKENGSLVPPKHILNAPTKLMKGEGYGDGYRYDHDEPDAFSGQDYFPEKMGRTTFYDPPDRGFEREIRKRLDWWAKLRRERGEGHHHHHH”: the “soluble on expression in E. coli” value is given as “not soluble”. Regarding “MSLGVKVDESFCLSDRDHIRKRPNMYVGSVNREAHERFIMGKFRKVEYVEGLVKIINEILDNSIDEAIRTDFKFANRIEVKIDHNLVTISDNGRGIPQDDVRTPEGKIVPKPVAAWTMAKSGSNFDDENRVTMGMNGVGSFLTNCYSSIFIGETSNGKRKVTINCTDGAQNMDYRTSPTKEQGTTVKFTPDFSIFGVDGIDEETKEVIKDRLMALAVAFPSVKFTYNGETLPNKFAMYGAMYGDSTITQTNNKISFILASTEDGFKQKSFVNGLDTKNGGVHVDCMIDGIYAELEPMIKKKHAIEIPKARVKECLTLVVFLHNFNAPAFDSQTKEKLTNTAGEFNNHAGLNYKKIAKQIMDTSEIITPIIESALIRKQAAEAAAITKEGHHHHHH”, the “soluble on expression in E. coli” value was “soluble”. With “GPGSMTNPSNSNLQALREELCTPGLDQGHLFEGWPETVDECNERQIALLTDLYMFSNMYPGGVAQYIRNGHELLARESEEVDFAALEMPPLIFEAPSLHRRTAERTALENAGTAMLCKTVFVLVAGGLGERLGYSSIKVSLPVETATNTTYLAYYLRWAQRVGGKEVPFVIMTSDDTHDRTLQLLRELQLEVPNLHVLKQGQVFCFADSAAHLALDETGKLLRKPHGHGDVHSLIYNATVKRDVVPDSGDGTATAQPLVNDWLAAGYESIVFIQDTNAGATITIPISLALSAEHSLDMNFTCIPRVPKEPIGLLCRTKKNSGDPWLVANVEYNVFAEVSRALNKDGGDEVSDPTGFSPFPGSVNTLVFKLSSYVDRLRESHGIVPEFINPKYSDETRRSFKKPARIESLMQDIALLFSEDDYRVGGTVFERFSYQPVKNSLEEAAGLVAQGNGAYCAATGEAAFYELQRRRLKAIGLPLFYSSQPEVTVAKDAFGVRLFPIIVLDTMCASSGSLDDLARVFPTPEKVHIDQHSTLIVEGRVIIESLELYGALTIRGPTDSMALPHVVRNAVVRNAGWSVHAILSLCAGRDSRLSEVDRIRGFVLKKTAMAVMDCNTKGESEAGAPSGAADPAKL”, the “soluble on expression in E. coli” value was “soluble”. “MSEQDATLDEFVEEGESESTDSANIDPNTLDQEQFGPFTLSTPGEWTAKRLGDIKQLITRGKQPTYDDDGVPVINQECIYWDGWHFENLRYLEEDVAEGWKEKYFPESGDVIVNSTGQGTLGRAQVYPGDQRRAIDSHVTLLRTDEQLCPHFHRYFFESHLGQALLYSMCVNGSTGQIELSKTRLDLLPTPLPPLEEQRKIASVLYNVDQAIQKTEAVIEKIERLKQGLLDDLFTKGLSESNSLRPSPEDHPGLYKKERRQTIPSEWNVESLQNLCVENITYGIVQPGPHVEDGVPYINTEDMTDGDIPTEGLSRTSPEIAEKYSRSQIHAEELVVTIRATIGAVDQVPPELEGANLTRGTARVVPGDKVDNTFLLWAIRSNNFQSELDARVKGTTFDEINLDQLGKIPVPHPDIDEQDRIVDELSTIEERMENEESYLEQLKRLKQGLMQDLLSGEVRTTDVDIPVLDAVAQHG”: the “soluble on expression in E. coli” value was “soluble”. For “MMTYEYILVRYGEMTTKGKNRSKFVSTLKDNVKFKLKKFPNIKIDATHDRMYIQLNGEDHEAVSERLKDVFGIHKFNLAMKVPSELEDIKKGALAAFLQVKGDVKTFKITVHRSYKHFPMRTMELLPEIGGHILENTEDITVDVHNPDVNVRVEIRSGYSYIMCDERMGAGGLPVGVGGKVMVLLSGGIDSPVAAYLTMKRGVSVEAVHFHSPPFTSERAKQKVIDLAQELTKYCKRVTLHLVPFTEVQKTINKEIPSSYSMTVMRRMMMRITERIAEERNALAITTGESLGQVASQTLDSMHTINEVTNYPVIRPLITMDKLEIIKIAEEIGTYDISIRPYEDCCTVFTPASPATKPKREKANRFEAKYDFTPLIDEAVANKETMVLQTVEVVAEEEKFEELF” the value was “not soluble”; for “MGSDKIHHHHHHMLNRVHLNGLRAVETVARLGSLAAAAGELNVSVSAVSQQISRTEKQLGQALFERTASGLVLTEFGAAFATRLGAGFRELAQAVALADEASQCTLVVSVAPAFASKWLLPRLSRHFDRHPNVLLRIDASVRLANLDHSDVDIAIRLGDGEWPGVRAELLLAQEVFPVCAPSIAAKLRSIEDLAQTCAITDERSMISWDSWFKAAGVEPVTFLKGARFTDPMLCLESAIAGHGVMLAWQLLTADALTDGRLVAPFGVRAESGLGYWMVTSATKAESRKVHDFKAWIREEIETTMAQFRTLDSAA”, “not soluble”; for “MEYAADGDTVFLESIENMEVTRLDSAIIRNGTFSFKGRQDSTVARYLSCMTATDVFSIPFFLENGHIEVKMKSGNESVTGTPTNDIYQEIRSKMAEIMNKMNEIYSDSTLTEELAEEKMDQMEREYTIAQKEAVKKNIANPVGVFLFKEQYFENSLAENQALFRQIPPKYLNDPVLMGMQKQMESQEKTDMNTPFT”, “not soluble”.

Regarding “MKHVKKEKAEKLEKERQRHIGKPLLGGPFSLTTHTGERKTDKDYLGQWLLIYFGFTHCPDVCPEELEKMIQVVDEIDSITTLPDLTPLFISIDPERDTKEAIANYVKEFSPKLVGLTGTREEVDQVARAYRVYYSPGPKDEDEDYIVDHTIIMYLIGPDGEFLDYFGQNKRKGEIAASIATHMRPYRKKS”, the “soluble on expression in E. coli” value is reported as “soluble”. On to “MLTTLAISNYRTLREIVLPLGRLNVVTGANGSGKSNLYKALRLLAQTAQGGVVNALALEGGLDSCFWAGPENLTKGMLAGDTPIEATVRQAPKRLKLGFAGEDFSYLIELGLPKPDSTTLFGLDPQIKREAIWNGAKYRPASVLVERRGPMVKSRSQDGQGWITLSAHLQSSDSIFTELADPERSPEVLKLRDSIRAWRFYDHFRTDTDAPARRPQLGTATPVLHHDGRDLPSAIQTIFEIGDKSAFDHAVSDAFPGAKVRITPQAGGILQLEFQQQGLLRPLYASELSDGTLRYLLLIAALLTPRPPELMVLNEPETSLHPDLLPALARLIAKASELEHHHHHH”, for which the “soluble on expression in E. coli” value is “not soluble”.

With “MQNLRTDVLIIGGGEAGLVAGCRALTMGQKVILVEKNGYLGGATILNGSNVVGTGSDVAAQIFDNNHDTPEMLAQDVARESLETNYPALTDLMVHNIGPAIDFISKFADLHYQKAQTQTPEHSINRQIELPSASSYEFIQKVSKAFAAAGGQIMLDTRVEKLMLDNDKKLRGVIAAQKDQTVNIKARSVVLAAGGHGANQKMRGTESEGIDYYGPMTSTGDAYQFNGDLDLQTHDLGWYKLYPHGVEVEPGVAKLTTYASKQATDMGAIYVNSKGDRIVNESNVYTTFRNAILKQADKVAYLVMDERTWKKVYDLLILHDFTPEEIKSFFENKGKRPVFVKGSLESAAEQAGIVVDELVQTVKNYQGYVQDGHDHDFGRDPKYLHQFEGETFYIIEQRDRFATTLGGYSVDADNLQLVTTKNAPVANYFGAGEIIGGANGHDSMPSMMNTWGISSGYVAGAAASENAQRQATAGAAALEHHHHHH”, the “soluble on expression in E. coli” value is “soluble”.

In the case of “MGSDKIHHHHHHMEANNGKMERIQEMLRMFGLSSYEAQGFAALVYHGVANADTIASTANIPRTSAYKVMESLVRKGLAKATEGRPRMFKPAKMEEIRDYYEEKLQQLFRDLKELEDNAPSRGEPQLIYTINGSQKVMEKIEEMINLTEHEIMISTPKIIEIRKQMKKPIENAIKRGVRVVFVIPPNKRVPANVIVYRRDGLIATDIVSDQIRALIAGPDLETCGYSDNPMLSMHVYQFINILINKPEIQG”, the “soluble on expression in E. coli” value was “not soluble”.

Regarding “MSLPRGLELLIAQTILQGFDAQYGRFLEVTSGAQQRFEQADWHAVQQAMKNRIHLYDHHVGLVVEQLRCITNGQSTDAAFLLRVKEHYTRLLPITRASRLRRAFLTPCTVGYLTTARLLPSGFLSLALSQSAAFVPFPPAGQRLSPRSRLGISTDARYQRPTAAPAWQNKSRDIHYIIRHLTETLGTDNLAESHLQVANELFYRNKAAWLVGKLITPSGTLPFLLPIHQTDDGELFIDTCLTTTAEASIVFGFARSYFMVYAPLPAALVEWLREILPGKTTAELYMAIGCQKHAKTESYREYLVYLQGCNEQFIEAPGIRGMVMLVFTLPGFDRVFKVIKDRFAPQKEMSAAHVRACYQLVKEHDRVGRMADTQEFENFVLEKRHISPALMELLLQEAAEKITDLGEQIVIRHLYIERRMVPLNIWLEQVEGQQLRDAIEEYGNAIRQLAAANIFPGDMLFKNFGVTRHGRVVFYDYDEICYMTEVNFRDIPPPRYPEDELASEPWYSVSPGDVFPEEFRHWLCADPRIGPLFEEMHADLFRADYWRALQNRIREGHVEDVYAYRRRQRFSVRYGEMLFEGHHHHHH”, the “soluble on expression in E. coli” value was “not soluble”.

On to “MTAEVMSHVTAHFGKTLEECREESGLSVDILDEFKHFWSDDFDVVHRELGCAIICMSNKFSLMDDDVRMHHVNMDEYIKSFPNGQVLAEKMVKLIHNCEKQFDTETDDCTRVVKVAACFKEDSRKEGIAPEVAMVEAVIEKY”, for which the “soluble on expression in E. coli” value was “soluble”. In the case of “MGSDKIHHHHHHMDKMKAITFFDLDGTLLDGTSQITPEITAAVAALKDNQILPLIATGRTLCEIQPIMKASGIDSAIVMNGQFIHYEGKTIYSDEFTTEECVSLHEHVKQRGHELAFYNERRIFCTGHTGTVKQAYDYIHSAVPEIDPTGYENDAVNMMLVLSQHGDDDEYYYERFPELTFYRNGPFSIDIVRKGVSKGSGVKNLFNTLGLNGIPTYAFGDGINDLALFEACDYGIAMGNAREELKEKATFISTKNTENGIVNGLKKFDLL”, the “soluble on expression in E. coli” value was “not soluble”. Regarding “MAHHHHHHMSNHGGSSSLDALGGVETAAAETTRNIVLGLPKDGPVPGSSDAASLQAAEAFIGSIQQEIMACDMANARAMELYARHWWTKVPYFGKRFGSTTATLEVTGADGGGVSGLPACTGTSDGQHKHMRLERSSEVAAVPGTSRGQQQRLNSWFFKLRHPGWVPIIQRPWVPYFCIGCLMLVWTPDIWKLRTLHWCDYQYAEFRRAVHRAYWRATMSAEDYKELMEELERGRPPPFGVSKCPL”, the “soluble on expression in E. coli” value is “not soluble”. Take “MSLTLPDTDQLVAGIQSWIQCESPSNSPAGVTAMAHLAAEYARAVGLAVEIRPLNAEVGPLVHATNRAAGDTRPGVLILGHIDTVHPIGTLQDNPCRIDGDRLYGPGSYDMKAGIYLALSALRGLPSPDATALPVDFLLVPDEETGSHASREHIEHYAARAKYALVCEPARPNGGKCVTARKGTGMLRLNVKGRPAHAGMQHEKGRSAIREMAHQVLELESMTDYERGITVSVGTIAGGTVTNTVPAQCRCVVDFRVPDMGATEDVLRRMRNLCSVGPDMELDIDVELNRPPMVKTEAASALLQLAQDFAAQAGFALEDAPMTGGGSDANFTSAMGVPTLDGLGADGDGAHTLNEYILVSTLAARMRFWELLLKELHEGHHHHHH”: the “soluble on expression in E. coli” value was “soluble”.
